Source: US20240294644A1 (BLUEFIN BIOMEDICINE, published 2024)

Key:
[1] = target: T1, mouse VTCN1 expressed on 293 cells (mouse, UniProt Q7TSP5 25-257); assay: flow cytometry on 293-VTCN1 (mouse) cells
T1 construct: whole, on cells
T1 sequence (looked up): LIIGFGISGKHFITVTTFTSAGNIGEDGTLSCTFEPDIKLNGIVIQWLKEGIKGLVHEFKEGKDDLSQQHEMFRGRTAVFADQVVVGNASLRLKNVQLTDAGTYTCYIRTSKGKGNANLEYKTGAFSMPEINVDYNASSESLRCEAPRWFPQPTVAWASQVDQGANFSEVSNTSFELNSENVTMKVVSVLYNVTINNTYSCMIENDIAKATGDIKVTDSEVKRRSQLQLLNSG

[2] = target: T2, VTCN1 IgC domain only construct expressed on 293 cells (human, UniProt Q7Z7D3 150-259, limits assumed); assay: flow cytometry on 293-VTCN1-IgC domain cells
T2 construct: The construct lacks the IgV domain
T2 sequence: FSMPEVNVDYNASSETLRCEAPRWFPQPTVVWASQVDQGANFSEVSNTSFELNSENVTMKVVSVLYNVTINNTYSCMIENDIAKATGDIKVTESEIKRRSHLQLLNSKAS

[3] = target: T3, VTCN1 IgV domain only construct expressed on 293 cells (human, UniProt Q7Z7D3 29-149, limits assumed); assay: flow cytometry on 293-VTCN1-IgV domain cells
T3 construct: The construct lacks the IgC domain
T3 sequence: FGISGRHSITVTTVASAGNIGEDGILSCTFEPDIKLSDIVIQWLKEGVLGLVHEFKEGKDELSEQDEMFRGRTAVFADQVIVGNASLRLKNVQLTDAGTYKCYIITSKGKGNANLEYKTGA

[4] = target: T4, human VTCN1 expressed on cells (293-VTCN1 cells; SKBR3, MX-1 and ZR-75-1 cells that express it naturally) (human, UniProt Q7Z7D3 25-282); assay: flow cytometry and immunofluorescence on cells
T4 construct: The cDNA was bought from Origene
T4 sequence: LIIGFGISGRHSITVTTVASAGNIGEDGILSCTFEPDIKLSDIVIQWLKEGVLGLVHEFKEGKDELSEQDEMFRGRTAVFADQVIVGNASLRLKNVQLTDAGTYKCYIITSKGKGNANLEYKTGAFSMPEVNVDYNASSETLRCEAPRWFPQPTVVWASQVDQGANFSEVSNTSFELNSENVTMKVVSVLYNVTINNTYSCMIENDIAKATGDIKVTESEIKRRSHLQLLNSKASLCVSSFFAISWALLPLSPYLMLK

B1: 7C8 (antibody, V domains shown)
VH: QVQLQESGPGLVKPSETLSLTCAVSGYSISSGYYWGWIRQPPGKGLEWIGSIYHSGTTYYNPSLKSRVTISVDTSKNQFSLKLNSVTAADTAVYYCATYSSGWYFYFDYWGQGTLVTVSS
VL: DIQLTQSPSFLSASVGDRVTITCRASQGISSYLAWYQQKPGKAPKLLIYVASTLQSGVPSRFSGSGSGTEFTLTISSLQPEDFATYYCQQLNSYPITFGQGTRLEIK
notes: Fully human antibody; also called VTCN1 antibody 7C8
binding result [1]: binds | binding result [2]: no binding | binding result [3]: no binding | binding result [4]: binds
